Source: US20100233802A1

Legend:
[1] = biological target: SNAP-25 peptide comprising amino acids 134-197 of SEQ ID NO: 5 (human); assay: SPR, BIAcore 3000, peptide on CM5 chip, antibody as analyte, 1:1 model
[2] = biological target: SNAP-25 peptide comprising amino acids 134-206 of SEQ ID NO: 5 (human); assay: as above

Substance	Kd [1] [nM]	koff [1] [s⁻¹]	kon [1] [M⁻¹ s⁻¹]	Kd [2] [nM]	koff [2] [s⁻¹]	kon [2] [M⁻¹ s⁻¹]
mouse α-SNAP-25 monoclonal antibody MC-6050 (Research & Diagnostic Antibodies)	0.497	0.000882	1.78e+06	19800	0.00607	306
mouse α-SNAP-25 monoclonal antibody MC-6053 (Research & Diagnostic Antibodies)	0.508	0.00118	2.32e+06	240	2.56e-05	–
